# Reference: publication PMC7515732 (Nucleic Acids Research, 2020)
# T1: HsRARA DBD (82–167) (human, UniProt P10276 82-167)
# T1 sequence (looked up): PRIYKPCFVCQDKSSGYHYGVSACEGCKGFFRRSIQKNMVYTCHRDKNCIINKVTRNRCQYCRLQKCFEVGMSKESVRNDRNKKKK
# T2: RXRA ΔAB;RARA ΔAB (Mus musculus;Mus musculus, UniProt P28700;P11416 135-467;84-462, |)
# T2 sequence 1: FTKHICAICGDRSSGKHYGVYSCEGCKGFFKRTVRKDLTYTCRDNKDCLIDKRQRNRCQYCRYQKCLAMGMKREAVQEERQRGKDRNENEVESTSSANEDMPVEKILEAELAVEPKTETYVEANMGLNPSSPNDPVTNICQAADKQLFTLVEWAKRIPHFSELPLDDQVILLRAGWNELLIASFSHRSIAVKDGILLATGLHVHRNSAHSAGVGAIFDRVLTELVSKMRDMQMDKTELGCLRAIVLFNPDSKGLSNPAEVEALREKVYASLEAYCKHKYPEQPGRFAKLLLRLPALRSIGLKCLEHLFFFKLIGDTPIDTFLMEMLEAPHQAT
# T2 sequence 2: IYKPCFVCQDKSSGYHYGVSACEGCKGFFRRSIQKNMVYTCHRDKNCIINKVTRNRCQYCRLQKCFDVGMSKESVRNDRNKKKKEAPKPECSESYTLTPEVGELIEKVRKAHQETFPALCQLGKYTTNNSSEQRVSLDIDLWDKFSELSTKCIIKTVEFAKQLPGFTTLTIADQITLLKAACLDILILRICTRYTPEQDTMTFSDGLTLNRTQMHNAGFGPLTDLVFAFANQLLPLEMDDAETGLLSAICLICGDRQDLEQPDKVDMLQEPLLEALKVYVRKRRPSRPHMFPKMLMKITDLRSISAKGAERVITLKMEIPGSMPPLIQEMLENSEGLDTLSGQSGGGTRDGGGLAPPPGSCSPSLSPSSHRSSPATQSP
# T3: RXRA ΔAB;RARA ΔABF (Mus musculus;Mus musculus, UniProt P28700;P11416 135-467;84-421, |)
# T3 sequence 1: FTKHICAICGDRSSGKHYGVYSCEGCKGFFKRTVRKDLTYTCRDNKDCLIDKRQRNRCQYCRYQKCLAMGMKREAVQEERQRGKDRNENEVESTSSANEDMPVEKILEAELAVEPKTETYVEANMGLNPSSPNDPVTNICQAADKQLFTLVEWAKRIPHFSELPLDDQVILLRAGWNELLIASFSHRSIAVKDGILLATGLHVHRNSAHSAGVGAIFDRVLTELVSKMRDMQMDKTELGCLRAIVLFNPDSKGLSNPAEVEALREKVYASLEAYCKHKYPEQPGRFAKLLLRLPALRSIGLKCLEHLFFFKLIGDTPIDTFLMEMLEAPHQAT
# T3 sequence 2: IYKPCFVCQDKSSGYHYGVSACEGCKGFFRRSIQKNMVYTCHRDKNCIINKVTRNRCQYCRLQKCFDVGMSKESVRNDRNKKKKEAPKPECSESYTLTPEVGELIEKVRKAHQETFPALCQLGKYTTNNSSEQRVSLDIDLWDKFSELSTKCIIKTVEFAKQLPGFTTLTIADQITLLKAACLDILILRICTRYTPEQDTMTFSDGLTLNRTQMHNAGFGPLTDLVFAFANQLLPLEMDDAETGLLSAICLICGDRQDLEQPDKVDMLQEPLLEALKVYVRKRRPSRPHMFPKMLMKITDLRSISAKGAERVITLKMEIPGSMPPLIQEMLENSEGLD
# Columns and labels:
# HsRARA DBD (82–167) = target: T1, HsRARA DBD (82–167); assay: crystal structure
# RXRA ΔAB;RARA ΔAB [1] = target: T2, RXRA ΔAB;RARA ΔAB; assay: FRET titration
# RXRA ΔAB;RARA ΔAB [2] = target: T2, RXRA ΔAB;RARA ΔAB; assay: HDX-MS
# RXRA ΔAB;RARA ΔABF = target: T3, RXRA ΔAB;RARA ΔABF; assay: SEC-SAXS/RALLS
# RXRA DBD;RARA DBD = RXRA DBD;RARA DBD (Homo sapiens;Homo sapiens, UniProt P19793;P10276 130-212;82-167, |); assay: X-ray crystallography
# RXRA DBD = RXRA DBD (Homo sapiens, UniProt P19793 130-212); assay: X-ray crystallography
binder,measurement,setting,value
"HsRXRA DBD (130–212) (domain or fragment, human, UniProt P19793 130-212, looked up) FTKHICAICGDRSSGKHYGVYSCEGCKGFFKRTVRKDLTYTCRDNKDCLIDKRQRNRCQYCRYQKCLAMGMKREAVQEERQRG",binding result,HsRARA DBD (82–167),binds
Ramp2 DR1 (dsDNA) DNA 1: TGAGTTCAAGGGTCAAT DNA 2: ATTGACCCTTGAACTCA,Kd,RXRA ΔAB;RARA ΔAB [1],500 nM
Rarb2 DR5 TAMRA (dsDNA) DNA 1: AGGGTTCACCGAAAGTTCACT DNA 2: AGTGAACTTTCGGTGAACCCT,Kd,RXRA ΔAB;RARA ΔAB [1],800 nM
"Hoxb13 DR0 unlabelled (SAXS, HDX) (dsDNA) DNA 1: GAAGGTCAAGGCCAAG DNA 2: CTTGGCCTTGACCTTC",binding result,RXRA ΔAB;RARA ΔAB [2],binds
same,binding result,RXRA ΔAB;RARA ΔABF,binds
Socs3 DR0 (dsDNA) DNA 1: AGGGGTCAAGGTCAAA DNA 2: TTTGACCTTGACCCCT,Kd,RXRA ΔAB;RARA ΔAB [1],2700 nM
Rarb2 DR5 (crystal) (dsDNA) DNA 1: AGGGTTCACCGAAAGTTCACT DNA 2: AGTGAACTTTCGGTGAACCCT,binding result,RXRA DBD;RARA DBD,binds
Hoxb13 DR0 (crystal) (dsDNA) DNA 1: GAAGGTCAAGGCCAAG DNA 2: CTTGGCCTTGACCTTC,binding result,RXRA DBD,binds
F11r DR5 (dsDNA) DNA 1: AGGGGTCAAGCCAGGTTCACT DNA 2: AGTGAACCTGGCTTGACCCCT,binding result,RXRA ΔAB;RARA ΔABF,binds
